Assay results published in paper PMC10995880.
Values joined by “and” are separate entries in the source; they are usually repeats but may differ in a detail not shown here. Equal values may be shown once. Read-outs that look alike come from different tables or passages of the source.

Legend:
[1] = target: PEX3 cytosolic domain (Homo sapiens) (UniProt P56589); settings: cited from earlier work
PEX19-WT proteins = assay: cross-linking; UV crosslinking from Bpa at L264 of PEX26; purified PEX19·PEX26^Bpa complex (400 nM PEX19) chased with 20 μM CaM at room temperature in 20 mM K-HEPES pH 7.5, 150 mM CH3COOK, 1 mM Ca acetate, 1 mM DTT, 10% glycerol; frozen aliquots irradiated; anti-Strep blot; dissociation (%) = PEX26xCaM/(PEX26xPEX19 + PEX26xCaM)
[2] = target: His6-PEX19-αd4A (F125A, L129A, L133A, L136A), non-farnesylated (human) (UniProt P40855); assay: as above
PEX19-αd4A proteins = assay: as above
[3] = target: farnesylated PEX19-WT (PEX19-WT^F) (human) (UniProt P40855); assay: as above
[4] = target: His6-PEX19-WT (1–299 aa), non-farnesylated (human) (UniProt P40855); assay: as above
[5] = target: His6-PEX19-αd4A (F125A, L129A, L133A, L136A), non-farnesylated (human) (UniProt P40855); assay: cross-linking; UV crosslinking from Bpa at L264 of PEX26; purified PEX19·PEX26^Bpa complex chased with SGTA instead of CaM
[6] = target: His6-PEX19-WT (1–299 aa), non-farnesylated (human) (UniProt P40855); assay: as above
[7] = target: 2×Strep-SUMO-PEX26 (237-305aa) (UniProt Q7Z412)
[8] = target: PEX3 cytosolic domain (Homo sapiens) (UniProt P56589); settings: cited from earlier work; remark: listed apart in the source

Chain of 2×Strep-SUMO-PEX26 (237-305aa) (Q7Z412 237-305): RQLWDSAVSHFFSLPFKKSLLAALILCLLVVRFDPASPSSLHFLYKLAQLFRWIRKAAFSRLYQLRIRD
Chain of PEX3 cytosolic domain (Homo sapiens) (P56589 41-373): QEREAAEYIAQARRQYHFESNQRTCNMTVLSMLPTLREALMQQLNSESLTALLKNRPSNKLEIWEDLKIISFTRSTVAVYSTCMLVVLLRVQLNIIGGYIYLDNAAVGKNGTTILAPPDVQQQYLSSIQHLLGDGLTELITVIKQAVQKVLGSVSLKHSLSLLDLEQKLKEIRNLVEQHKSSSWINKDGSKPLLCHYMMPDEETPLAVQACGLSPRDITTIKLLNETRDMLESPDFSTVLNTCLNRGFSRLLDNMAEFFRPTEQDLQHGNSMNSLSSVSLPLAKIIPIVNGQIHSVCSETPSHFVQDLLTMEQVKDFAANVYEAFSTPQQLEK
Chain of farnesylated PEX19-WT (PEX19-WT^F) (P40855 whole entry): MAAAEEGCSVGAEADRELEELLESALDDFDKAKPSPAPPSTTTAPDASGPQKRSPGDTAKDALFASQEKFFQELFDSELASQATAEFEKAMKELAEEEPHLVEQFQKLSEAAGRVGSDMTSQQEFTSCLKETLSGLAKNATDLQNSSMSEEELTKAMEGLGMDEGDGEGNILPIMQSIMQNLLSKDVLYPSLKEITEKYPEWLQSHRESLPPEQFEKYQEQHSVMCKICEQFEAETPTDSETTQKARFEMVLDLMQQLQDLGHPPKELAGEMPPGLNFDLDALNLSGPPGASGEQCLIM
Chain of His6-PEX19-WT (1–299 aa), non-farnesylated (P40855 whole entry, the tested form may be a part): as the sequence (P40855 whole entry) above
Chain of PEX19 (P40855 2-296): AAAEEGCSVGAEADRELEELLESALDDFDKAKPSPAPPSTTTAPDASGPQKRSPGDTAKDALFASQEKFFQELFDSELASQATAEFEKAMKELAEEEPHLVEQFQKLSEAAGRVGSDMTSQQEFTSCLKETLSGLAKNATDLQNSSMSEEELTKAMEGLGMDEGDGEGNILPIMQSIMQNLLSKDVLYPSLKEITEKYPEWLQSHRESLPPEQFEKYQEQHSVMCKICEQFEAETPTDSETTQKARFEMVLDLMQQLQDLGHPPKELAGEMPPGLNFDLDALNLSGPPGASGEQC
Chain of PEX19 αa peptide (P40855 14-33): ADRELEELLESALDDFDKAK

In the case of PEX19 αa peptide (from UniProt P40855), the Kd [1] is given as 40.8 nM.

In the case of “2×Strep-SUMO-PEX26^Bpa (L264^Bpa) (from UniProt Q7Z412 237-305) (domain or fragment)”, the PEX26 dissociation (%) within 4 h of CaM chase (PEX19-WT proteins) is reported as 20% and 30%, the PEX26 dissociation (%) within 10 min of CaM chase [2] is reported as 70% and the PEX26 dissociation (%) within 5 min of CaM chase (PEX19-αd4A proteins) is reported as 60% and 80%. For the same substance, the time to release ∼20% of PEX26 to CaM [3] was 240 min, the PEX26 dissociation (%) within 10 min of CaM chase [4] was 16% and the time to release ∼20% of PEX26 to CaM [4] was 30 min and 40 min. The PEX26 dissociation (%) within 10 min of SGTA chase [5] was > 40%, the PEX26 dissociation (%) within 20 min of SGTA chase [5] was 50% and the PEX26 dissociation (%) within 80 min of SGTA chase [6] was < 4%.

Work on “His6-PEX19-WT (1–299 aa), non-farnesylated (from UniProt P40855 1-299) (natural protein)” yielded a turbidity assay (OD360): concentration of PEX19 for half-maximal solubilization of 1.5 μM PEX26 (K soluble) [7] of 1.71 µM.

For PEX19 (from UniProt P40855), the Kd [8] is given as 3.4 nM.

“farnesylated PEX19-WT (PEX19-WT^F) (from UniProt P40855 1-299) (natural protein)” showed a turbidity assay (OD360): concentration of PEX19 for half-maximal solubilization of 1.5 μM PEX26 (K soluble) [7] of 0.72 µM.
